{"source": "patent US20250073311A1", "about": "“DOSAGE REGIME” (ZEALAND PHARMA A/S, priority 2021, published 2025)", "binders": {"B1": {"name": "Compound 31 (peptide)", "peptide": "H-H[Aib]EGSFTSELATILDK([γGlu-C18 diacid])QAARDFIAWLISHKITD-OH", "SMILES": "CC[C@H](C)[C@H](NC(=O)[C@H](Cc1ccccc1)NC(=O)[C@H](CC(=O)O)NC(=O)[C@H](CCCNC(=N)N)NC(=O)[C@H](C)NC(=O)[C@H](C)NC(=O)[C@H](CCC(N)=O)NC(=O)[C@H](CCCCNC(=O)CC[C@H](NC(=O)CCCCCCCCCCCCCCCCC(=O)O)C(=O)O)NC(=O)[C@H](CC(=O)O)NC(=O)[C@H](CC(C)C)NC(=O)[C@@H](NC(=O)[C@@H](NC(=O)[C@H](C)NC(=O)[C@H](CC(C)C)NC(=O)[C@H](CCC(=O)O)NC(=O)[C@H](CO)NC(=O)[C@@H](NC(=O)[C@H](Cc1ccccc1)NC(=O)[C@H](CO)NC(=O)CNC(=O)[C@H](CCC(=O)O)NC(=O)C(C)(C)NC(=O)[C@@H](N)Cc1c[nH]cn1)[C@@H](C)O)[C@@H](C)O)[C@@H](C)CC)C(=O)N[C@@H](C)C(=O)N[C@@H](Cc1c[nH]c2ccccc12)C(=O)N[C@@H](CC(C)C)C(=O)N[C@H](C(=O)N[C@@H](CO)C(=O)N[C@@H](Cc1c[nH]cn1)C(=O)N[C@@H](CCCCN)C(=O)N[C@H](C(=O)N[C@H](C(=O)N[C@@H](CC(=O)O)C(=O)O)[C@@H](C)O)[C@@H](C)CC)[C@@H](C)CC"}, "B2": {"name": "Compound 28 (peptide)", "peptide": "H-H[Aib]EGSFTSELATILDK([γGlu-C18 diacid])QAARDFIAWLILHKITD-OH", "SMILES": "CC[C@H](C)[C@H](NC(=O)[C@H](Cc1ccccc1)NC(=O)[C@H](CC(=O)O)NC(=O)[C@H](CCCNC(=N)N)NC(=O)[C@H](C)NC(=O)[C@H](C)NC(=O)[C@H](CCC(N)=O)NC(=O)[C@H](CCCCNC(=O)CC[C@H](NC(=O)CCCCCCCCCCCCCCCCC(=O)O)C(=O)O)NC(=O)[C@H](CC(=O)O)NC(=O)[C@H](CC(C)C)NC(=O)[C@@H](NC(=O)[C@@H](NC(=O)[C@H](C)NC(=O)[C@H](CC(C)C)NC(=O)[C@H](CCC(=O)O)NC(=O)[C@H](CO)NC(=O)[C@@H](NC(=O)[C@H](Cc1ccccc1)NC(=O)[C@H](CO)NC(=O)CNC(=O)[C@H](CCC(=O)O)NC(=O)C(C)(C)NC(=O)[C@@H](N)Cc1c[nH]cn1)[C@@H](C)O)[C@@H](C)O)[C@@H](C)CC)C(=O)N[C@@H](C)C(=O)N[C@@H](Cc1c[nH]c2ccccc12)C(=O)N[C@@H](CC(C)C)C(=O)N[C@H](C(=O)N[C@@H](CC(C)C)C(=O)N[C@@H](Cc1c[nH]cn1)C(=O)N[C@@H](CCCCN)C(=O)N[C@H](C(=O)N[C@H](C(=O)N[C@@H](CC(=O)O)C(=O)O)[C@@H](C)O)[C@@H](C)CC)[C@@H](C)CC"}, "B3": {"name": "Compound 26 (peptide)", "peptide": "H-H[Aib]EGSFTSELATILDK([γGlu-C18 diacid])QAARDFIAWLIHHKITD-OH", "SMILES": "CC[C@H](C)[C@H](NC(=O)[C@H](Cc1ccccc1)NC(=O)[C@H](CC(=O)O)NC(=O)[C@H](CCCNC(=N)N)NC(=O)[C@H](C)NC(=O)[C@H](C)NC(=O)[C@H](CCC(N)=O)NC(=O)[C@H](CCCCNC(=O)CC[C@H](NC(=O)CCCCCCCCCCCCCCCCC(=O)O)C(=O)O)NC(=O)[C@H](CC(=O)O)NC(=O)[C@H](CC(C)C)NC(=O)[C@@H](NC(=O)[C@@H](NC(=O)[C@H](C)NC(=O)[C@H](CC(C)C)NC(=O)[C@H](CCC(=O)O)NC(=O)[C@H](CO)NC(=O)[C@@H](NC(=O)[C@H](Cc1ccccc1)NC(=O)[C@H](CO)NC(=O)CNC(=O)[C@H](CCC(=O)O)NC(=O)C(C)(C)NC(=O)[C@@H](N)Cc1c[nH]cn1)[C@@H](C)O)[C@@H](C)O)[C@@H](C)CC)C(=O)N[C@@H](C)C(=O)N[C@@H](Cc1c[nH]c2ccccc12)C(=O)N[C@@H](CC(C)C)C(=O)N[C@H](C(=O)N[C@@H](Cc1c[nH]cn1)C(=O)N[C@@H](Cc1c[nH]cn1)C(=O)N[C@@H](CCCCN)C(=O)N[C@H](C(=O)N[C@H](C(=O)N[C@@H](CC(=O)O)C(=O)O)[C@@H](C)O)[C@@H](C)CC)[C@@H](C)CC"}, "B4": {"name": "Compound 27 (peptide)", "peptide": "H-H[Aib]EGSFTSELATILDK([γGlu-C18 diacid])QAARDFIAWLIYHKITD-OH", "SMILES": "CC[C@H](C)[C@H](NC(=O)[C@H](Cc1ccccc1)NC(=O)[C@H](CC(=O)O)NC(=O)[C@H](CCCNC(=N)N)NC(=O)[C@H](C)NC(=O)[C@H](C)NC(=O)[C@H](CCC(N)=O)NC(=O)[C@H](CCCCNC(=O)CC[C@H](NC(=O)CCCCCCCCCCCCCCCCC(=O)O)C(=O)O)NC(=O)[C@H](CC(=O)O)NC(=O)[C@H](CC(C)C)NC(=O)[C@@H](NC(=O)[C@@H](NC(=O)[C@H](C)NC(=O)[C@H](CC(C)C)NC(=O)[C@H](CCC(=O)O)NC(=O)[C@H](CO)NC(=O)[C@@H](NC(=O)[C@H](Cc1ccccc1)NC(=O)[C@H](CO)NC(=O)CNC(=O)[C@H](CCC(=O)O)NC(=O)C(C)(C)NC(=O)[C@@H](N)Cc1c[nH]cn1)[C@@H](C)O)[C@@H](C)O)[C@@H](C)CC)C(=O)N[C@@H](C)C(=O)N[C@@H](Cc1c[nH]c2ccccc12)C(=O)N[C@@H](CC(C)C)C(=O)N[C@H](C(=O)N[C@@H](Cc1ccc(O)cc1)C(=O)N[C@@H](Cc1c[nH]cn1)C(=O)N[C@@H](CCCCN)C(=O)N[C@H](C(=O)N[C@H](C(=O)N[C@@H](CC(=O)O)C(=O)O)[C@@H](C)O)[C@@H](C)CC)[C@@H](C)CC"}, "B5": {"name": "Compound 29 (peptide)", "peptide": "H-H[Aib]EGSFTSELATILDK([γGlu-C18 diacid])QAARDFIAWLIKHKITD-OH", "SMILES": "CC[C@H](C)[C@H](NC(=O)[C@H](Cc1ccccc1)NC(=O)[C@H](CC(=O)O)NC(=O)[C@H](CCCNC(=N)N)NC(=O)[C@H](C)NC(=O)[C@H](C)NC(=O)[C@H](CCC(N)=O)NC(=O)[C@H](CCCCNC(=O)CC[C@H](NC(=O)CCCCCCCCCCCCCCCCC(=O)O)C(=O)O)NC(=O)[C@H](CC(=O)O)NC(=O)[C@H](CC(C)C)NC(=O)[C@@H](NC(=O)[C@@H](NC(=O)[C@H](C)NC(=O)[C@H](CC(C)C)NC(=O)[C@H](CCC(=O)O)NC(=O)[C@H](CO)NC(=O)[C@@H](NC(=O)[C@H](Cc1ccccc1)NC(=O)[C@H](CO)NC(=O)CNC(=O)[C@H](CCC(=O)O)NC(=O)C(C)(C)NC(=O)[C@@H](N)Cc1c[nH]cn1)[C@@H](C)O)[C@@H](C)O)[C@@H](C)CC)C(=O)N[C@@H](C)C(=O)N[C@@H](Cc1c[nH]c2ccccc12)C(=O)N[C@@H](CC(C)C)C(=O)N[C@H](C(=O)N[C@@H](CCCCN)C(=O)N[C@@H](Cc1c[nH]cn1)C(=O)N[C@@H](CCCCN)C(=O)N[C@H](C(=O)N[C@H](C(=O)N[C@@H](CC(=O)O)C(=O)O)[C@@H](C)O)[C@@H](C)CC)[C@@H](C)CC"}, "B6": {"name": "Compound 32 (peptide)", "peptide": "H-H[Aib]EGSFTSELATILDK([βAla-Palmitoyl])QAARDFIAWLQQHKITD-OH", "SMILES": "CCCCCCCCCCCCCCCC(=O)NCCC(=O)NCCCC[C@H](NC(=O)[C@H](CC(=O)O)NC(=O)[C@H](CC(C)C)NC(=O)[C@@H](NC(=O)[C@@H](NC(=O)[C@H](C)NC(=O)[C@H](CC(C)C)NC(=O)[C@H](CCC(=O)O)NC(=O)[C@H](CO)NC(=O)[C@@H](NC(=O)[C@H](Cc1ccccc1)NC(=O)[C@H](CO)NC(=O)CNC(=O)[C@H](CCC(=O)O)NC(=O)C(C)(C)NC(=O)[C@@H](N)Cc1c[nH]cn1)[C@@H](C)O)[C@@H](C)O)[C@@H](C)CC)C(=O)N[C@@H](CCC(N)=O)C(=O)N[C@@H](C)C(=O)N[C@@H](C)C(=O)N[C@@H](CCCNC(=N)N)C(=O)N[C@@H](CC(=O)O)C(=O)N[C@@H](Cc1ccccc1)C(=O)N[C@H](C(=O)N[C@@H](C)C(=O)N[C@@H](Cc1c[nH]c2ccccc12)C(=O)N[C@@H](CC(C)C)C(=O)N[C@@H](CCC(N)=O)C(=O)N[C@@H](CCC(N)=O)C(=O)N[C@@H](Cc1c[nH]cn1)C(=O)N[C@@H](CCCCN)C(=O)N[C@H](C(=O)N[C@H](C(=O)N[C@@H](CC(=O)O)C(=O)O)[C@@H](C)O)[C@@H](C)CC)[C@@H](C)CC"}, "B7": {"name": "Compound 30 (peptide)", "peptide": "H-H[Aib]EGSFTSELATILDK([γGlu-C18 diacid])QAARDFIAWLIRHKITD-OH", "SMILES": "CC[C@H](C)[C@H](NC(=O)[C@H](Cc1ccccc1)NC(=O)[C@H](CC(=O)O)NC(=O)[C@H](CCCNC(=N)N)NC(=O)[C@H](C)NC(=O)[C@H](C)NC(=O)[C@H](CCC(N)=O)NC(=O)[C@H](CCCCNC(=O)CC[C@H](NC(=O)CCCCCCCCCCCCCCCCC(=O)O)C(=O)O)NC(=O)[C@H](CC(=O)O)NC(=O)[C@H](CC(C)C)NC(=O)[C@@H](NC(=O)[C@@H](NC(=O)[C@H](C)NC(=O)[C@H](CC(C)C)NC(=O)[C@H](CCC(=O)O)NC(=O)[C@H](CO)NC(=O)[C@@H](NC(=O)[C@H](Cc1ccccc1)NC(=O)[C@H](CO)NC(=O)CNC(=O)[C@H](CCC(=O)O)NC(=O)C(C)(C)NC(=O)[C@@H](N)Cc1c[nH]cn1)[C@@H](C)O)[C@@H](C)O)[C@@H](C)CC)C(=O)N[C@@H](C)C(=O)N[C@@H](Cc1c[nH]c2ccccc12)C(=O)N[C@@H](CC(C)C)C(=O)N[C@H](C(=O)N[C@@H](CCCNC(=N)N)C(=O)N[C@@H](Cc1c[nH]cn1)C(=O)N[C@@H](CCCCN)C(=O)N[C@H](C(=O)N[C@H](C(=O)N[C@@H](CC(=O)O)C(=O)O)[C@@H](C)O)[C@@H](C)CC)[C@@H](C)CC"}}, "note": "Numbered stars: 1 amine (or outer) side, 2 acyl side, 3 side chain; on linkers, the order of the positions; unused ones are H or OH. Square brackets hold non-standard residues; d marks the D form. Side chains are listed from the residue outwards. * marks the point of attachment. C18 diacid = O=C(O)CCCCCCCCCCCCCCCCC(=O)*; γGlu = O=C(O)[C@H](CCC(=O)[*:2])N[*:1]; Palmitoyl = CCCCCCCCCCCCCCCC(=O)*; Aib = CC(C)(N)C(=O)O; βAla = NCCC(=O)O"}
{"molecular_target": "human glucagon-like peptide 1 receptor (GLP-1R) (human, UniProt P43220)", "test": "cell-based or functional assay", "units": {"EC50 GLP-1 (nM), cAMP AlphaScreen": "nM"}}
{"binder": "B1", "EC50 GLP-1 (nM), cAMP AlphaScreen": 0.27}
{"binder": "B2", "EC50 GLP-1 (nM), cAMP AlphaScreen": 0.36}
{"binder": "B3", "EC50 GLP-1 (nM), cAMP AlphaScreen": 0.29}
{"binder": "B4", "EC50 GLP-1 (nM), cAMP AlphaScreen": 0.45}
{"binder": "B5", "EC50 GLP-1 (nM), cAMP AlphaScreen": 0.31}
{"binder": "B6", "EC50 GLP-1 (nM), cAMP AlphaScreen": 0.38}
{"binder": "B7", "EC50 GLP-1 (nM), cAMP AlphaScreen": 0.31}
{"molecular_target": "T1, human GLP-2 receptor (hGLP2-R) (human, UniProt O95838)", "T1 sequence": "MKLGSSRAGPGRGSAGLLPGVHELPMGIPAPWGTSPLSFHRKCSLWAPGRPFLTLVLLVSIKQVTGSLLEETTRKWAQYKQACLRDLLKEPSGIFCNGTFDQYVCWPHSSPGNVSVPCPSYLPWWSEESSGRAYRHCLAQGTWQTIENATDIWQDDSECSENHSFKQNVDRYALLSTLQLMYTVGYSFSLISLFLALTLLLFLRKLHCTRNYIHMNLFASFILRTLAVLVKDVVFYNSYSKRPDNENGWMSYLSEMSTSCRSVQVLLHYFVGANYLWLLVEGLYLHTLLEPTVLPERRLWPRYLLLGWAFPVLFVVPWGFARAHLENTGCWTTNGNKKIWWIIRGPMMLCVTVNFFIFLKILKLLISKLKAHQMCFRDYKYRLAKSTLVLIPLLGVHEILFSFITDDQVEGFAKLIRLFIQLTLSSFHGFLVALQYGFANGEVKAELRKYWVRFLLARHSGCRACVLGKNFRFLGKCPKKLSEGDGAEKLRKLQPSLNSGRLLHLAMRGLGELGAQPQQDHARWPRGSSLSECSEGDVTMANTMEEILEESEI", "test": "cell-based or functional assay", "units": {"EC50 GLP-2 (nM), cAMP AlphaScreen": "nM"}}
{"binder": "B1", "EC50 GLP-2 (nM), cAMP AlphaScreen": 0.24}
{"binder": "B2", "EC50 GLP-2 (nM), cAMP AlphaScreen": 0.51}
{"binder": "B3", "EC50 GLP-2 (nM), cAMP AlphaScreen": 0.59}
{"binder": "B4", "EC50 GLP-2 (nM), cAMP AlphaScreen": 1.1}
{"binder": "B5", "EC50 GLP-2 (nM), cAMP AlphaScreen": 0.29}
{"binder": "B6", "EC50 GLP-2 (nM), cAMP AlphaScreen": 0.46}
{"binder": "B7", "EC50 GLP-2 (nM), cAMP AlphaScreen": 0.38}
